# Data taken from patent publication US20210145976A1.
# Molecular target: human serum albumin (human) (UniProt P02768)
# Experiment: screening ELISA
# Sequence of human serum albumin (human) (P02768 25-609 limits assumed): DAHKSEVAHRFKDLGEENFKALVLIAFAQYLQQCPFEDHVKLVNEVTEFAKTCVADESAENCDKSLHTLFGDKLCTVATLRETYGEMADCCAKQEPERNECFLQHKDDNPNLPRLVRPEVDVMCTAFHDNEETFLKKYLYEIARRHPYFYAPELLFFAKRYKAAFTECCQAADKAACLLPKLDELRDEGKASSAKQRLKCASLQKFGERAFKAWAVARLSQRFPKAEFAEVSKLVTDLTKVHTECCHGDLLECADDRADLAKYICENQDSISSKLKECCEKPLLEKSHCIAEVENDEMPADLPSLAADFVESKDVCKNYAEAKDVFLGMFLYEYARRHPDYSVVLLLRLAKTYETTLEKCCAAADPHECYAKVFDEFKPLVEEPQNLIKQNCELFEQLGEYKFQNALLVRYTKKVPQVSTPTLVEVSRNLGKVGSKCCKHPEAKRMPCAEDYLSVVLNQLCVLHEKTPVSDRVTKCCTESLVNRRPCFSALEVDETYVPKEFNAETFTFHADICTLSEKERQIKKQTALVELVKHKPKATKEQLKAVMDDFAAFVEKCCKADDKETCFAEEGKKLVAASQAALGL
row,HSA,Binder
1,3800,SEQ ID NO 275 (designed binder) MLPAPKNLVVSRVTEDSARLSWTAPDAAFDSFLIAYAEVTLHGEAIVLTVPGSERSYDLTGLKPGTEYSVLIHGVKGGRNSDPLSAIFTT
2,6500,SEQ ID NO 278 (designed binder) MLPAPKNLVVSRVTEDSARLSWTAPDAAFDSFPIAYAEPRPDGEAIVLTVPGSERSYDLTGLKPGTEYSVLIHGVKGGHLSDPLSAIFTT
3,40800,SEQ ID NO 288 (designed binder) MLPAPKNLVVSRVTEDSARLSWTAPDAAFDSFLIPYAETSPSGEAIVLTVPGSERSYDLTGLKPGTEYSVLIHGVKGGDYSSPLSAISTT
4,6250,SEQ ID NO 283 (designed binder) MLPAPKNLVVSRVTEDSARLSWTAPDAAFDSFPIAYAEPRPDGEAIVLTVPGSERSYDLTGLKPGTEYSVLIHGVKGGLLSSPLSAIFTT
5,34000,SEQ ID NO 298 (designed binder) MLPAPKNLVVSRVTEDSARLSWTAPDAAFDSFPIAYAEPRPDGEAIVLTVPGSERSYDLTGLKPGTEYSVLIHGVKGGLLSSPLSAISTT
6,2200,SEQ ID NO 285 (designed binder) MLPAPKNLVVSRVTEDSARLSWTAPDAAFDSFLIPYAETSPSGEAIVLTVPGSERSYDLTGLKPGTEYSVLIHGVKGGDYSSPLSAIFTT
7,8850,SEQ ID NO 292 (designed binder) MLPAPKNLVVSRVTEDSARLSWTAPDAAFDSFDIAYWELTPSGEAIELLVPGSERSYDLTGLKPGTEYRVDIIGVKGGFISEPLGATFTT
8,12300,SEQ ID NO 308 (designed binder) MLPAPKNLVVSEVTEDSARLSWQGVARAFDSFLITYREQIFAGEVIVLTVPGSERSYDLTGLKPGTEYPVWIQGVKGGSPSAPLSAISTT
9,28600,SEQ ID NO 81 (designed binder) MLPAPKNLVVSRVTEDSARLSWTAPDAAFDSFVIEYREGAWYGEAIVLTVPGSERSYDLTGLKPGTEYAVYIPGVKGGPRSFPLSAIFTT
10,6160,SEQ ID NO 54 (designed binder) MLPAPKNLVVSRVTEDSARLSWTAPDAAFDSFQILYQENAFEGEAIVLTVPGSERSYDLTGLKPGTEYWVYIYGVKGGYPSVPLSAIFTT
11,2200,SEQ ID NO 299 (designed binder) MLPAPKNLVVSRVTEDSARLSWTAPDAAFDSFLIEYWESVGYGEAIVLTVPGSERSYDLTGLKPGTEYWVGIYGVKGGYYSRPLSAIFTT
12,10600,SEQ ID NO 61 (designed binder) MLPAPKNLVVSRVTEDSARLSWRVESRTFDSFLIQYQESEKVGEAIVLTVPGSERSYDLTGLKPGTEYTVSIYGVVWDTRDNPISNPLSAIFTT
13,2150,SEQ ID NO 289 (designed binder) MLPAPKNLVVSRVTEDSARLSWTAPDAAFDSFAIPYYEDTNDGEAIVLTVPGSERSYDLTGLKPGTEYWVSIQGVKGGTVSGPLSAIFTT
14,2650,SEQ ID NO 303 (designed binder) MLPAPKNLVVSRVTEDSARLSWTAPDAAFDSFFIAYFEFANPGEAIVLTVPGSERSYDLTGLKPGTEYKVVIQGVKGGTPSEPLSAIFTT
15,18600,SEQ ID NO 282 (designed binder) MLPAPKNLVVSRVTEDSARLSWTAPDAAFDSFAIVYHEPRPDGEAIVLTVPGSERSYDLTGLKPGTEYEVVILGVKGGVHSYPLSAIFTT
16,3800,SEQ ID NO 295 (designed binder) MLPAPKNLVVSRVTEDSARLSWTAPDAAFDSFFIGYLEPIPSGEAIVLTVPGSERSYDLTGLKPGTEYPVVIQGVKGGHPSQPLSAIFTT
17,18900,SEQ ID NO 82 (designed binder) MLPAPKNLVVSRVTEDSARLSWTAPDAAFDSFAIAYVEWWKLGEAIVLTVPGSERSYDLTGLKPGTEYVVPIPGVKGGGHSSPLSAIFTT
18,52600,SEQ ID NO 297 (designed binder) MLPAPKNLVVSRVTEDSARLSWTAPDAAFDSFLIPYAETSPSGEAITLFVPGSERSYDLTGLKPGTEYNVVIQGVKGGRPSNPLVAASTT
19,4050,SEQ ID NO 300 (designed binder) MLPAPKNLVVSRVTEDSARLSWTAPDAAFDSFFIGYLEPQPPGEAIVLTVPGSERSYDLTGLKPGTEYNVTIHGVKGGTPSMPLSAIFTT
20,25000,SEQ ID NO 305 (designed binder) MLPAPKNLVVSRVTEDSARLSWTAPDAAFDSFEIDYDEPFVYGEAIVLTVPGSERSYDLTGLKPGTEYRVFIFGVKGGNGSWPLSAIFTT

row,HSA,Binder
1,8250,SEQ ID NO 294 (designed binder) MLPAPKNLVVSRVTEDSARLSWTAPDAAFDSFSIIYSEWNVTGEAIVLTVPGSERSYDLTGLKPGTEYDVWIEGVKGGGMSKPLSAISTT
2,10800,SEQ ID NO 286 (designed binder) MLPAPKNLVVSRVTEDSARLSWTAPDAAFDSFNIYYPEFPVRGEAIVLTVPGSERSYDLTGLKPGTEYVVSIWGVKGGTQSWPLSAIFTT
3,21200,SEQ ID NO 302 (designed binder) MLPAPKNLVVSRVTEDSARLSWTAPDAAFDSFDIYYPEYYDRGEAIVLTVPGSERSYDLTGLKPGTEYTVYIDGVKGGGGSGPLSAIFTT
4,16900,SEQ ID NO 57 (designed binder) MLPAPKNLVVSRVTEDSARLSWTAPDAAFDSFSIKYLEWWQDGEAIVLTVPGSERSYDLTGLKPGTEYYVHIAGVKGGYRSYPLSAIFTT
5,4350,SEQ ID NO 307 (designed binder) MLPAPKNLVVSRVTEDSARLSWTAPDAAFDSFPITYSEPAHYGEAIVLTVPGSERSYDLTGLKPGTEYHVGIMGVKGGVFSSPLSAIFTT
6,12000,SEQ ID NO 301 (designed binder) MLPAPKNLVVSRVTEDSARLSWTAPDAAFDSFEIEYDEPYRGGEAIVLTVPGSERSYDLTSLKPGTEYPVSIGGVKGGITSDPLSAIFTT
7,2150,SEQ ID NO 291 (designed binder) MLPAPKNLVVSRVTEDSARLSWTAPDAAFDSFHIEYEEPETEGEAIYLHVPGSERSYDLTGLKPGTEYKVLIRGVKGGSYSIPLQAPFTT
8,25900,SEQ ID NO 34 (designed binder) MLPAPKNLVVSRVTEDSARLSWTAPDAAFDSFAITYIEWWDVGEAIGLKVPGSERSYDLTGLKPGTEYRVHIQGVKGGNNSYPLDALFTT
9,3150,SEQ ID NO 279 (designed binder) MLPAPKNLVVSRVTEDSARLSWTAPDAAFDSFSIEYYESVGLGEAIVLTVPGSERSYDLTGLKPGTEYDVSIYGVKGGYLSRPLSAIFTT
10,5500,SEQ ID NO 287 (designed binder) MLPAPKNLVVSRVTEDSARLSWTAPDAAFDSFTIEYHESGPVGEAIVLTVPGSERSYDLTGLKPGTEYMVWIFGVKGGFVSRPLSAIFTT
11,2250,SEQ ID NO 306 (designed binder) MLPAPKNLVVSRVTEDSARLSWTAPDAAFDSFYIEYFETQGYGEAIVLTVPGSERSYDLTGLKPGTEYYVAIYGVKGGYLSRPLSAIFTT
12,7520,SEQ ID NO 56 (designed binder) MLPAPKNLVVSRVTEDSARLSWTAPDAAFDSFVIEYFEALEGGEAIVLTVPGSERSYDLTGLKPGTEYFVGIYGVKGGPLSKPLSAIFTT
13,7760,SEQ ID NO 55 (designed binder) MLPAPKNLVVSRVTEDSARLSWTAPDAAFDSFIIEYWEFVGYGEAIVLTVPGSERSYDLTGLKPGTEYWVAIYGVKGGDLSKPLSAIFTT
14,12400,SEQ ID NO 276 (designed binder) MLPAPKNLVVSRVTEDSARLSWTAPDAAFDSFRIDYLELTSLGEAIVLTVPGSERSYDLTGLKPGTEYPVPILGVKGGLSSWPLSAIFTT
15,2850,SEQ ID NO 309 (designed binder) MLPAPKNLVVSRVTEDSARLSWTAPDAAFDSFIIDYLELDQEGEAIVLTVPGSERSYDLTGLKPGTEYAVYIFGVKGGYPSTPLSAIFTT
16,5200,SEQ ID NO 277 (designed binder) MLPAPKNLVVSRVTEDSARLSWTAPDAAFDSFWINYYEGIGEGEAIVLTVPGSERSYDLTGLKPGTEYYVDISGVKGGSYSLPLSAIFTT
17,6480,SEQ ID NO 60 (designed binder) MLPAPKNLVVSRVTEDSARLSWTAPDAAFDSFTIWYAEAIGHGEAIVLTVPGSERSYDLTGLKPGTEYWVDIWGVKGGQQSKPLSAIFTT
18,22400,SEQ ID NO 281 (designed binder) MLPAPKNLVVSRVTEDSARLSWTAPDAAFDSFYIDYDEIHDWGEAIVLTVPGSERSYDLTGLKPGTEYAVQIGGVKGGSFSWTLSAIFTT
19,11800,SEQ ID NO 290 (designed binder) MLPAPKNLVVSRVTEDSARLSWTAPDAAFDSFFYLEQAWGGEAIVLTVPGSERSYDLTGLKPGTEYWVEITGVKGGYASSPLSAIFTT
